Our source for the self-cleavage values is the RNAGym collection of RNA variant scans (doi:10.7554/elife.80360).

To fix the notation:
B1: CPEB3 Ribozyme (parent)
chain: GGGGGCCACAGCAGAAGCGUUCACGUCGCGGCCCCUGUCAGAUUCUGGUGAAUCUGCGAAUUCUGCUGU

Variants of B1 are the subject of the data set. Kind of data set: self-cleavage, relative activity (ratio to wild type); higher = more cleavage; co-transcriptional.
For the variant GGGGGCCACAGCAGAAGCGUUCAUGUCGCGGCCCCUGUCAGAUUCUGGUGAAUCCGCGAAUUCUGCUGU [C24U U55C], the self-cleavage was found to be 0.391.

Turning to GGGGGCCACAGCAGAAGCGUUCACAUCGCGGCCCAUGUCAGAUUCUGGUGAAUCUGCGAAUUCUGCUGU [G25A C35A], the self-cleavage turned out to be 0.21.

On to GGGGGCCACAGCAGAAGCGUUCAUGUCGCCGCCCCUGUCAGAUUCUGGUGAAUCUGCGAAUUCUGCUGU [C24U G30C], for which the self-cleavage was found to be 0.152.

For the variant GGGGGCCACAGCAGAAGCGUUCAUUUCGCGGCCCCUGUCAGAUUCUGGUGAAUCUGCGAAUUCUGCUGU [C24U G25U], the self-cleavage worked out at 0.146.

Regarding GGGGGCCACAGCAGAAGCGUUCAGGUCGCGGCCCCUGUCAGAUUCUGGGGAAUCUGCGAAUUCUGCUGU [C24G U49G], the self-cleavage came to 0.565.

For the variant GGGGGCCACAGCAGAAGCGUUCAGGUCGCGGCCCCUGUCAGAUUCUGGAGAAUCUGCGAAUUCUGCUGU [C24G U49A], the self-cleavage was 0.59.

As for GGGGGCCACAGCAGAAGCGUUCAUGUCGCGGCCCCUGUCAGAUUCUGGUGUAUCUGCGAAUUCUGCUGU [C24U A51U], the self-cleavage was 0.785.

GGGGGCCACAGCAGAAGCGUUCAUGUCGCGGCCCCUGUCAGAUUCUGGUGGAUCUGCGAAUUCUGCUGU [C24U A51G]: the self-cleavage was 0.774.

With GGGGGCCACAGCAGAAGCGUUCAUGUCGCGGCCCCCGUCAGAUUCUGGUGAAUCUGCGAAUUCUGCUGU [C24U U36C], the self-cleavage worked out at 0.37.

For the variant GGGGGCCACAGCAGAAGCGUUCAUGUCGCGGCCCCAGUCAGAUUCUGGUGAAUCUGCGAAUUCUGCUGU [C24U U36A], the self-cleavage was determined as 0.181.

On to GGGGGCCACAGCAGAAGCGUUCAUGUCGCGGCCCCUGUCAGAUUCUGGUGAAUGUGCGAAUUCUGCUGU [C24U C54G], for which the self-cleavage came to 0.586.

GGGGGCCACAGCAGAAGCGUUCAUGUCGCGGCCCCUGUCAGAUUCGGGUGAAUCUGCGAAUUCUGCUGU [C24U U46G]: the self-cleavage amounted to 0.879.

In the case of GGGGGCCACAGCAGAAGCGUUCAUGUCGCGGCCCCUGUGAGAUUCUGGUGAAUCUGCGAAUUCUGCUGU [C24U C39G], the self-cleavage stood at 0.619.

For the variant GGGGGCCACAGCAGAAGCGUUCAUGUCGCGGCCCCUGUAAGAUUCUGGUGAAUCUGCGAAUUCUGCUGU [C24U C39A], the self-cleavage turned out to be 0.315.

For the variant GGGGGCCACAGCAGAAGCGUUCAUGUCGCGGCCCCUGUUAGAUUCUGGUGAAUCUGCGAAUUCUGCUGU [C24U C39U], the self-cleavage was 0.549.

As to GGGGGCCACAGCAGAAGCGUUCAGGUCGCGGCCCCUGUCAGAUUCUGGUGAAUCUGCGAAUUCAGCUGU [C24G U64A], the self-cleavage was determined as 0.325.

Take GGGGGCCACAGCAGAAGCGUUCAUGUCGCGGCCCAUGUCAGAUUCUGGUGAAUCUGCGAAUUCUGCUGU [C24U C35A]: the self-cleavage came out at 0.17.

On to GGGGGCCACAGCAGAAGCGUUCAUGUCGCGGCCCGUGUCAGAUUCUGGUGAAUCUGCGAAUUCUGCUGU [C24U C35G], for which the self-cleavage came out at 0.202.

Take GGGGGCCACAGCAGAAGCGUUCAGGUCGCGGCCCCUGUCAGAUUCUGGUGAAUCUGCGAAUUCUGCUCU [C24G G68C]: the self-cleavage was 0.578.

As for GGGGGCCACAGCAGAAGCGUUCAUGUCGCGGCCCCUGUCAGAUUCUGGUGAAUCUGAGAAUUCUGCUGU [C24U C57A], the self-cleavage amounted to 0.309.

In the case of GGGGGCCACAGCAGAAGCGUUCAUGCCGCGGCCCCUGUCAGAUUCUGGUGAAUCUGCGAAUUCUGCUGU [C24U U26C], the self-cleavage is 0.626.

Turning to GGGGGCCACAGCAGAAGCGUUCAUGGCGCGGCCCCUGUCAGAUUCUGGUGAAUCUGCGAAUUCUGCUGU [C24U U26G], the self-cleavage is 0.448.

Turning to GGGGGCCACAGCAGAAGCGUUCAUGACGCGGCCCCUGUCAGAUUCUGGUGAAUCUGCGAAUUCUGCUGU [C24U U26A], the self-cleavage is 0.257.

For GGGGGCCACAGCAGAAGCGUUCACAUCGCGGCCCCUGUCAGAUUCUGGUGAAUCUGCGACUUCUGCUGU [G25A A60C], the self-cleavage turned out to be 0.142.

Consider GGGGGCCACAGCAGAAGCGUUCAUGUCGCGGCCCCUGUCAGAUUCUGGUGAAUCUGCGAAUUCUGCUGC [C24U U69C], for which the self-cleavage was 1.02.

Turning to GGGGGCCACAGCAGAAGCGUUCAUGUCGCGGCCCCUGUCAGAUUCUGGCGAAUCUGCGAAUUCUGCUGU [C24U U49C], the self-cleavage stood at 0.84.

Consider GGGGGCCACAGCAGAAGCGUUCAUGUCGCGGCCCCUGUCAGAUUCUGGAGAAUCUGCGAAUUCUGCUGU [C24U U49A], for which the self-cleavage was 0.865.

Take GGGGGCCACAGCAGAAGCGUUCAUGUCGCGGCCCCUGUCAGAUUCUGGUUAAUCUGCGAAUUCUGCUGU [C24U G50U]: the self-cleavage stood at 0.852.

With GGGGGCCACAGCAGAAGCGUUCAUGUAGCGGCCCCUGUCAGAUUCUGGUGAAUCUGCGAAUUCUGCUGU [C24U C27A], the self-cleavage was determined as 0.229.

In the case of GGGGGCCACAGCAGAAGCGUUCAGGGCGCGGCCCCUGUCAGAUUCUGGUGAAUCUGCGAAUUCUGCUGU [C24G U26G], the self-cleavage was found to be 0.344.

Regarding GGGGGCCACAGCAGAAGCGUUCAGGACGCGGCCCCUGUCAGAUUCUGGUGAAUCUGCGAAUUCUGCUGU [C24G U26A], the self-cleavage worked out at 0.206.

For the variant GGGGGCCACAGCAGAAGCGUUCAGGUCGCGGCCCCUGUCAGAUUCUGGUGAAUCUGCGAAUUCUGCGGU [C24G U67G], the self-cleavage was 0.508.

Turning to GGGGGCCACAGCAGAAGCGUUCAGGUCGCGGCCCCUGUCAGAUUCUGGUGAAUCUGCGAAUUCUGCCGU [C24G U67C], the self-cleavage was 0.522.

For GGGGGCCACAGCAGAAGCGUUCAUGUCGCGCCCCCUGUCAGAUUCUGGUGAAUCUGCGAAUUCUGCUGU [C24U G31C], the self-cleavage amounted to 0.0935.

With GGGGGCCACAGCAGAAGCGUUCAUGUCGCGGCCCCUGUCAGAUUCUGGUGAAUCUGCGAAUUCUGCUAU [C24U G68A], the self-cleavage worked out at 0.919.

Consider GGGGGCCACAGCAGAAGCGUUCAGGUCGCGGCCCCUGUCAGAUGCUGGUGAAUCUGCGAAUUCUGCUGU [C24G U44G], for which the self-cleavage came out at 0.308.

As for GGGGGCCACAGCAGAAGCGUUCAUGUCUCGGCCCCUGUCAGAUUCUGGUGAAUCUGCGAAUUCUGCUGU [C24U G28U], the self-cleavage was found to be 0.214.

In the case of GGGGGCCACAGCAGAAGCGUUCAUGUCCCGGCCCCUGUCAGAUUCUGGUGAAUCUGCGAAUUCUGCUGU [C24U G28C], the self-cleavage came to 0.191.

Take GGGGGCCACAGCAGAAGCGUUCAUGUCACGGCCCCUGUCAGAUUCUGGUGAAUCUGCGAAUUCUGCUGU [C24U G28A]: the self-cleavage amounted to 0.174.
